From patent US20050148031A1, “Catalytic efficiency and/or specificity of non-native substrates of enzymes” (priority 2003, published 2005)

How the values were obtained:
[1] = target: T1, MEK2 phosphorylation of ERK2 (Mus musculus, UniProt P63085, K52R); assay: Kinase assay: MEK2 phosphorylation of ERK2 with docking domain peptides; assay type: biochemical, human (MEK2)
T1 construct: purchased New England Biolabs (ERK2 K52R); Upstate Biotechnology (MEK2)
Description: The following experiment was done to investigate whether docking domain peptides could inhibit MEK2 phosphorylation of ERK2. […] An autoradiogram of a representative experiment is shown (see FIG. 2A). The results were plotted as percent phoshphorylation relative to that observed in the absence of any added peptide (see FIG. 2B). ERK2 phosphorylation was analyzed by SDS-PAGE and quantified. Data are the average of two to four experiments, with triplicate data points in each experiment.
ERK2 and peptide were pre-incubated in buffer for 10 min at 37° C., then returned to ice prior to the addition of ATP and MEK2. Reactions were for 20 min at 30° C. ERK2 phosphorylation was quantified by SDS-PAGE followed by analysis of relative incorporation using a Phosphorlmager™ (Molecular Dynamics, Inc.).

[2] = target: T2, MKP-1 dephosphorylation of ERK2 (Mus musculus, UniProt P63085); assay: Phosphatase assay: MKP-1 dephosphorylation of ERK2 with docking domain peptides; assay type: biochemical, human (MKP-1); conditions: western blot with anti-phospho-ERK2
T2 construct: purchased Upstate Biotechnology (MKP-1); no vendor is printed for the active ERK2 in this assay
Description: The following experiment was performed to assess whether MAPK-docking domain peptides would inhibit dephosphorylation of ERK2 by MKP-1. Purified, full-length, activated ERK2 (0.5 pmol) was incubated with 0.5 units of purified active MKP-1 for 20 min, in the absence or presence of the specified concentrations of the indicated peptides. ERK2 dephosphoryation was quantified by SDS-PAGE followed by western blotting and immonostaining with anti-phospho-ERK2 (Thr202/Tyr204). The lanes corresponding to ERK2 with no MKP-1 or no added peptide contain 50% of the relative amounts loaded in all other lanes (see FIG. 4A).
Phosphatase reactions (20 μl) for MKP-1 dephosphorylation of ERK2 contained 50 mM Tris-HCl (pH 7.5), 50 mM NaCl, 0.5 pmol active mouse ERK2, 0.5 units active human MKP-1 (Upstate Biotechnology) and the indicated concentration of peptide. Reactions were for 30 min. at 30° C. Reactions were analyzed by SDS-PAGE followed by western transfer and immunostaining with anti-phospho-ERK2 (Thr202/Tyro204) antibody (New England Biolabs).

[3] = target: T3, MEK2 binding to GST-ERK2 (Mus musculus, UniProt P63085); assay: GST co-sedimentation (pull-down) assay of 35S-MEK2 binding to GST-ERK2; conditions: 25 μM or 100 μM peptide
T3 construct: made in house; host or cells: MEK2 by in vitro translation
Description: The purpose of the following experiment is to assess whether MAPK docking domain peptides would inhibit MEK2-binding to GST-ERK2. Radiolabeled (^35S) MEK2 and MEK2Δ4-16 proteins (˜1 pmol) were prepared by in vitro translation, partially purified by ammonium sulfate precipitation, and then incubated with 10 μg of purified GST or GST-ERK2 pre-bound to glutathione-Sepharose beads, in the absence or presence of the specified concentrations of docking domain peptides (Ste7, MEK1, MEK2, Elk-1) or mutant forms of docking domain peptides (scram7, MEK2EEAA, ElkEEG). Bead-bound protein complexes were isolated by sedimentation and resolved on 12% SDS-polyacrylamide gels. An autoradiogram of a representative experiment is illustrated (see FIG. 5A). Gels were analyzed by staining with Coomassie Blue for visualization of the bound GST fusion protein in order to verify equal amounts in each reaction and by autoradiography for visualization of the bound radiolabeled MEK2 or MEK2Δ4-16 to GST or GST-ERK2 in the absence of peptide (hatched bars), or in the presence of 25 μM (light gray bars) or 100 μM peptide (dark gray bars) (see FIG. 5B). Data are the average of three to five experiments; standard error bars are shown.
The constructs and methods used in the GST co-sedimentation (“pull-down”) experiments shown in FIG. 5 have been described elsewhere (Bardwell et al., 2001). […]

CC[C@H](C)[C@H](NC(=O)[C@@H]1CCCN1C(=O)[C@@H](NC(=O)[C@@H]1CCCN1C(=O)[C@H](CCCCN)NC(=O)[C@H](CCCCN)NC(=O)[C@H](CCCCN)NC(=O)[C@@H]1CCCN1C(=O)[C@@H](N)CCSC)[C@@H](C)O)C(=O)N[C@@H](CCC(N)=O)C(=O)N[C@@H](CC(C)C)C(=O)N[C@@H](CC(N)=O)C(=O)N1CCC[C@H]1C(=O)N[C@@H](C)C(=O)N1CCC[C@H]1C(=O)N[C@@H](CC(=O)O)C(=O)NCC(=O)O [MEK1, MPKKKPTPIQLNPAPDG]
IC50 ([1]; 1 μM inactive ERK2, 0.1 units active MEK2, 20 min, read-out: IC50 for inhibition of MEK2 phosphorylation of ERK2): ~100 µM

MLAEEKPVLPAATANPTIAE [MEK2 mutant peptide, MEK2 peptide with mutations in basic and hydrophobic residues]
inhibition of ERK2 phosphorylation by MEK2 (in words) ([1]; peptide titrated into MEK2 kinase assay): did not inhibit

KGRKPRDLELPLSPS [Elk-1, docking domain peptide from Elk-1 residues 312-326]
inhibition of MKP-1 mediated dephosphorylation of phospho-ERK2 (in words) [2]: dose-dependent inhibition | inhibition of MEK2 protein co-sedimentation with GST-ERK2 (in words) [3]: inhibited
